Paper PMC4964276

How the values were obtained:
PKA RIIα (Homo sapiens) = PKA RIIα (Homo sapiens) (UniProt P13861); test: SPR; conditions: cited from earlier work
[1] = biological target: AKAP18β 30-mer peptide, Ala63 to aspartate (human); test: peptide or protein array
[2] = biological target: AKAP18β 30-mer peptide, Ala67 to aspartate (human); test: peptide or protein array
[3] = biological target: AKAP18β 30-mer peptide, Val60 to aspartate (human); test: peptide or protein array
[4] = biological target: AKAP18β 30-mer peptide, Val64 to aspartate (human); test: peptide or protein array

Sequence of RIIα subunits, recombinant, radioactively labelled (32P) (P13861 whole entry): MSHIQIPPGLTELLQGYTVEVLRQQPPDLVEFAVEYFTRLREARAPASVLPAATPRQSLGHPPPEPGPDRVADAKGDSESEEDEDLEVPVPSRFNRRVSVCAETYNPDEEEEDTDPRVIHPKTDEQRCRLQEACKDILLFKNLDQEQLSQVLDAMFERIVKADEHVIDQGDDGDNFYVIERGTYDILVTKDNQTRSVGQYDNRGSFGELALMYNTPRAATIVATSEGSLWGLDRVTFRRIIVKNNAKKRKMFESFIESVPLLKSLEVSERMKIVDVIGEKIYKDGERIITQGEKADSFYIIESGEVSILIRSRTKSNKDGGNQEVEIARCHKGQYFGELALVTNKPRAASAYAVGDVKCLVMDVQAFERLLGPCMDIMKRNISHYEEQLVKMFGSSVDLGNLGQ
Sequence of AKAP18δ PKA-binding domain peptide PKA-binding domain (25 aa) (Q9P0M2 295-319, stated change not applied): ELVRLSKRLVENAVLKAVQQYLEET
Sequence of PKA RIIα (Homo sapiens) (P13861 2-404): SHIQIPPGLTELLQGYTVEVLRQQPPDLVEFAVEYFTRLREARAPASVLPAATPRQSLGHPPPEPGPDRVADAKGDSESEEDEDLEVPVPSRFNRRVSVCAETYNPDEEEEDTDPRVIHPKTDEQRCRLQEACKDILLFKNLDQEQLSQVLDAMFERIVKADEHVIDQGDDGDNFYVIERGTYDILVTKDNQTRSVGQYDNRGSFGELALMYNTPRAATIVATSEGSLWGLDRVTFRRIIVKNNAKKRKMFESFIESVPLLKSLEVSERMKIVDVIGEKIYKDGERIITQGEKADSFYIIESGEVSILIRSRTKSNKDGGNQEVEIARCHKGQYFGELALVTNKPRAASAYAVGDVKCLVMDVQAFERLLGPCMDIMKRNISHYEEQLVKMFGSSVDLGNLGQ

reduction of binding (% against the wild-type peptide) [1] | reduction of binding (% against the wild-type peptide) [2] | reduction of binding (% against the wild-type peptide) [3] | reduction of binding (% against the wild-type peptide) [4] | Substance | Kd (PKA RIIα (Homo sapiens))
 |  |  |  | AKAP18δ PKA-binding domain peptide PKA-binding domain (25 aa) (from UniProt Q9P0M2) | 0.4 nM
> 60% | > 60% | > 60% | > 60% | RIIα subunits, recombinant, radioactively labelled (32P) (from UniProt P13861 1-404) (natural protein) | 
